Each block holds one sequence with its values, some of them ahead of it.
Assays:
HLA-A*01:01 = assay: IEDB peptide-MHC binding, purified MHC/direct/fluorescence; filed as Kd, often an IC50 or EC50 that approximates it; ≥ and ≤ were set here for values at or beyond the usual limits of such assays
HLA-A*02:01 [1] = assay: as above
HLA-A*03:01 [2] = assay: as above
HLA-A*11:01 = assay: as above
HLA-A*29:02 [3] = assay: as above
HLA-A*31:01 = assay: as above
HLA-A*69:01 = assay: as above
HLA-B*15:01 [4] = assay: as above
HLA-B*18:01 [5] = assay: as above
HLA-B*27:05 = assay: as above
HLA-B*39:01 = assay: as above
HLA-B*40:01 = assay: as above
HLA-B*44:02 = assay: as above
HLA-B*46:01 [6] = assay: as above
HLA-B*48:01 = assay: as above
HLA-B*57:01 [7] = assay: as above
HLA-B*58:01 = assay: as above
HLA-A*02:01 [8] = assay: IEDB peptide-MHC binding, purified MHC/competitive/fluorescence; filed as Kd, often an IC50 or EC50 that approximates it; ≥ and ≤ were set here for values at or beyond the usual limits of such assays
HLA-A*02:11 = assay: as above
HLA-A*02:03 = assay: as above; conditions: source organism: Cryptosporidium parvum Iowa II
HLA-A*02:19 = assay: as above
HLA-A*03:01 [9] = assay: as above
HLA-A*26:01 = assay: as above
HLA-B*15:01 [10] = assay: as above; conditions: source organism: Cryptosporidium parvum Iowa II
HLA-B*15:17 = assay: as above
HLA-B*27:03 = assay: as above
HLA-B*46:01 [11] = assay: as above
HLA-B*57:01 [12] = assay: as above
HLA-A*02:12 = assay: IEDB peptide-MHC binding, purified MHC/direct/fluorescence; filed as Kd, often an IC50 or EC50 that approximates it; ≥ and ≤ were set here for values at or beyond the usual limits of such assays; conditions: source organism: Maporal virus
HLA-A*24:03 [13] = assay: as above; conditions: source organism: Maporal virus
HLA-A*68:02 = assay: as above; conditions: source organism: Maporal virus
HLA-B*07:02 = assay: as above
HLA-B*51:01 = assay: IEDB peptide-MHC binding, purified MHC/competitive/fluorescence; filed as Kd, often an IC50 or EC50 that approximates it; ≥ and ≤ were set here for values at or beyond the usual limits of such assays
HLA-A*24:03 [14] = assay: as above
HLA-A*29:02 [15] = assay: as above; conditions: source organism: Vibrio parahaemolyticus K5030
HLA-B*18:01 [16] = assay: as above; conditions: source organism: Vibrio parahaemolyticus K5030
HLA-A*24:02 = assay: IEDB peptide-MHC binding, purified MHC/direct/fluorescence; filed as Kd, often an IC50 or EC50 that approximates it; ≥ and ≤ were set here for values at or beyond the usual limits of such assays; conditions: source organism: Influenza A virus (A/Viet Nam/HN/2004(H5N1))
HLA-B*08:01 = assay: as above; conditions: source organism: Influenza A virus (A/Viet Nam/HN/2004(H5N1))
HLA-B*08:02 = assay: as above; conditions: source organism: Influenza A virus(A/swine/Shandong/fNY/2003(H9N2))
[17] = source organism: Mycobacterium avium 104
[18] = source organism: Encephalitozoon cuniculi GB-M1
[19] = source organism: Cryptosporidium parvum Iowa II
[20] = source organism: Orthohantavirus andesense
[21] = source organism: Vibrio parahaemolyticus K5030
[22] = source organism: Influenza A virus (A/Viet Nam/HN/2004(H5N1))

Sequence: VRDVVMPAL
Kd (HLA-A*01:01; [17]): ≥ 20 µM | Kd (HLA-A*02:01 [1]; [17]): ≥ 20 µM | Kd (HLA-A*03:01 [2]; [17]): ≥ 20 µM | Kd (HLA-A*11:01; [17]): ≥ 20 µM | Kd (HLA-A*29:02 [3]; [17]): ≥ 20 µM | Kd (HLA-A*31:01; [17]): ≥ 20 µM | Kd (HLA-A*69:01; [17]): ≥ 20 µM | Kd (HLA-B*15:01 [4]; [17]): ≥ 20 µM | Kd (HLA-B*18:01 [5]; [17]): ≥ 20 µM | Kd (HLA-B*27:05; [17]): ≥ 20 µM | Kd (HLA-B*39:01; [17]): 0.0674 µM | Kd (HLA-B*40:01; [17]): ≥ 20 µM | Kd (HLA-B*44:02; [17]): ≥ 20 µM | Kd (HLA-B*46:01 [6]; [17]): ≥ 20 µM | Kd (HLA-B*48:01; [17]): ≥ 20 µM | Kd (HLA-B*57:01 [7]; [17]): ≥ 20 µM | Kd (HLA-B*58:01; [17]): ≥ 20 µM

Kd (HLA-A*02:01 [8]; [18]): 0.0014 µM | Kd (HLA-A*02:11; [18]): 0.129 µM
Sequence: SMIFSVLDA

Sequence: SGLPGIFIV
Kd (HLA-A*02:01 [8]; [19]): ≥ 20 µM | Kd (HLA-A*02:03): ≥ 20 µM | Kd (HLA-A*02:11; [19]): 5.45 µM | Kd (HLA-A*02:19; [19]): ≥ 20 µM | Kd (HLA-A*03:01 [9]; [19]): ≥ 20 µM | Kd (HLA-A*26:01; [19]): ≥ 20 µM | Kd (HLA-B*15:01 [10]): ≥ 20 µM | Kd (HLA-B*15:17; [19]): ≥ 20 µM | Kd (HLA-B*27:03; [19]): ≥ 20 µM | Kd (HLA-B*46:01 [11]; [19]): ≥ 20 µM | Kd (HLA-B*57:01 [12]; [19]): ≥ 20 µM

Sequence: TRDHVNLVL
Kd (HLA-A*01:01; [20]): ≥ 20 µM | Kd (HLA-A*02:01 [1]; [20]): ≥ 20 µM | Kd (HLA-A*02:12): ≥ 20 µM | Kd (HLA-A*03:01 [2]; [20]): ≥ 20 µM | Kd (HLA-A*24:03 [13]): ≥ 20 µM | Kd (HLA-A*29:02 [3]; [20]): ≥ 20 µM | Kd (HLA-A*31:01; [20]): ≥ 20 µM | Kd (HLA-A*68:02): ≥ 20 µM | Kd (HLA-A*69:01; [20]): ≥ 20 µM | Kd (HLA-B*07:02; [20]): ≥ 20 µM | Kd (HLA-B*15:01 [4]; [20]): ≥ 20 µM | Kd (HLA-B*18:01 [5]; [20]): ≥ 20 µM | Kd (HLA-B*27:05; [20]): ≥ 20 µM | Kd (HLA-B*39:01; [20]): 0.0457 µM | Kd (HLA-B*44:02; [20]): ≥ 20 µM | Kd (HLA-B*46:01 [6]; [20]): ≥ 20 µM | Kd (HLA-B*48:01; [20]): ≥ 20 µM | Kd (HLA-B*57:01 [7]; [20]): ≥ 20 µM | Kd (HLA-B*58:01; [20]): ≥ 20 µM | Kd (HLA-A*26:01; [20]): ≥ 20 µM | Kd (HLA-B*15:17; [20]): ≥ 20 µM | Kd (HLA-B*27:03; [20]): ≥ 20 µM | Kd (HLA-B*51:01; [20]): ≥ 20 µM

Sequence: LQNFCQHLV
Kd (HLA-A*02:01 [8]; [21]): 0.0024 µM | Kd (HLA-A*02:11; [21]): 0.0006 µM | Kd (HLA-A*02:19; [21]): 0.0251 µM | Kd (HLA-A*03:01 [9]; [21]): ≥ 20 µM | Kd (HLA-A*24:03 [14]; [21]): ≥ 20 µM | Kd (HLA-A*26:01; [21]): ≥ 20 µM | Kd (HLA-A*29:02 [15]): 0.0196 µM | Kd (HLA-B*18:01 [16]): ≥ 20 µM | Kd (HLA-B*27:03; [21]): ≥ 20 µM | Kd (HLA-B*46:01 [11]; [21]): ≥ 20 µM | Kd (HLA-B*51:01; [21]): ≥ 20 µM | Kd (HLA-B*57:01 [12]; [21]): ≥ 20 µM

Sequence: GYDFEREGY
Kd (HLA-A*24:03 [14]; source organism: Influenza A virus (A/swine/Italy/1509-6/97(H1N1))): 0.0358 µM

Sequence: AYYKPYVQL
Kd (HLA-A*24:03 [14]; source organism: Bacillus cereus G9241): 0.0009 µM

Sequence: VHFRNQVKI
Kd (HLA-A*01:01; [22]): ≥ 20 µM | Kd (HLA-A*02:01 [1]; [22]): ≥ 20 µM | Kd (HLA-A*03:01 [2]; [22]): ≥ 20 µM | Kd (HLA-A*11:01; [22]): ≥ 20 µM | Kd (HLA-A*24:02): ≥ 20 µM | Kd (HLA-A*31:01; [22]): ≥ 20 µM | Kd (HLA-A*69:01; [22]): ≥ 20 µM | Kd (HLA-B*07:02; [22]): ≥ 20 µM | Kd (HLA-B*08:01): ≥ 20 µM | Kd (HLA-B*08:02): ≥ 20 µM | Kd (HLA-B*15:01 [4]; [22]): ≥ 20 µM | Kd (HLA-B*27:05; [22]): ≥ 20 µM | Kd (HLA-B*39:01; [22]): 1.56 µM | Kd (HLA-B*40:01; [22]): ≥ 20 µM | Kd (HLA-B*46:01 [6]; [22]): ≥ 20 µM | Kd (HLA-B*58:01; [22]): ≥ 20 µM

From the Immune Epitope Database (IEDB)
